According to patent publication US20090099029:

T1: Bovine, dephosphorylated, Myelin Basic Protein (MBP), P02687
T1 chain: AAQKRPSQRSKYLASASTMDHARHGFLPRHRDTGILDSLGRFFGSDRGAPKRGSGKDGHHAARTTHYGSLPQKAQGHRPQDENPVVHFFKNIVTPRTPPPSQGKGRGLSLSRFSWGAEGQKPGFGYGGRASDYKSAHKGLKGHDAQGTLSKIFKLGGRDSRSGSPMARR

B1: ABL2(ARG) (protein)
chain: MGQQVGRVGEAPGLQQPQPRGIRGSSAARPSGRRRDPAGRTTETGFNIFTQHDHFASCVEDGFEGDKTGGSSPEALHRPYGCDVEPQALNEAIRWSSKENLLGATESDPNLFVALYDFVASGDNTLSITKGEKLRVLGYNQNGEWSEVRSKNGQGWVPSNYITPVNSLEKHSWYHGPVSRSAAEYLLSSLINGSFLVRESESSPGQLSISLRYEGRVYHYRINTTADGKVYVTAESRFSTLAELVHHHSTVADGLVTTLHYPAPKCNKPTVYGVSPIHDKWEMERTDITMKHKLGGGQYGEVYVGVWKKYSLTVAVKTLKEDTMEVEEFLKEAAVMKEIKHPNLVQLLGVCTLEPPFYIVTEYMPYGNLLDYLRECNREEVTAVVLLYMATQISSAMEYLEKKNFIHRDLAARNCLVGENHVVKVADFGLSRLMTGDTYTAHAGAKFPIKWTAPESLAYNTFSIKSDVWAFGVLLWEIATYGMSPYPGIDLSQVYDLLEKGYRMEQPEGCPPKVYELMRACWKWSPADRPSFAETHQAFETMFHDSSISEEVAEELGRAASSSSVVPYLPRLPILPSKTRTLKKQVENKENIEGAQDATENSASSLAPGFIRGAQASSGSPALPRKQRDKSPSSLLEDAKETCFTRDRKGGFFSSFMKKRNAPTPPKRSSSFREMENQPHKKYELTGNFSSVASLQHADGFSFTPAQQEANLVPPKCYGGSFAQRNLCNDDGGGGGGSGTAGGGWSGITGFFTPRLIKKTLGLRAGKPTASDDTSKPFPRSNSTSSMSSGLPEQDRMAMTLPRNCQRSKLQLERTVSTSSQPEENVDRANDMLPKKSEESAAPSRERPKAKLLPRGATALPLRTPSGDLAITEKDPPGVGVAGVAAAPKGKEKNGGARLGMAGVPEDGEQPGWPSPAKAAPVLPTTHNHKVPVLISPTLKHTPADVQLIGTDSQGNKFKLLSEHQVTSSGDKDRPRRVKPKCAPPPPPVMRLLQHPSICSDPTEEPTALTAGQSTSETQEGGKKAALGAVPISGKAGRPVMPPPQVPLPTSSISPAKMANGTAGTKVALRKTKQAAEKISADKISKEALLECADLLSSALTEPVPNSQLVDTGHQLLDYCSGYVDCIPQTRNKFAFREAVSKLELSLQELQVSSAAAGVPGTNPVLNNLLSCVQEISDVVQR
B2: BMX (protein)
chain: MDTKSILEELLLKRSQQKKKMSPNNYKERLFVLTKTNLSYYEYDKMKRGSRKGSIEIKKIRCVEKVNLEEQTPVERQYPFQIVYKDGLLYVYASNEESRSQWLKALQKEIRGNPHLLVKYHSGFFVDGKFLCCQQSCKAAPGCTLWEAYANLHTAVNEEKHRVPTFPDRVLKIPRAVPVLKMDAPSSSTTLAQYDNESKKNYGSQPPSSSTSLAQYDSNSKKIYGSQPNFNMQYIPREDFPDWWQVRKLKSSSSSEDVASSNQKERNVNHTTSKISWEFPESSSSEEEENLDDYDWFAGNISRSQSEQLLRQKGKEGAFMVRNSSQVGMYTVSLFSKAVNDKKGTVKHYHVHTNAENKLYLAENYCFDSIPKLIHYHQHNSAGMITRLRHPVSTKANKVPDSVSLGNGIWELKREEITLLKELGSGQFGVVQLGKWKGQYDVAVKMIKEGSMSEDEFFQEAQTMMKLSHPKLVKFYGVCSKEYPIYIVTEYISNGCLLNYLRSHGKGLEPSQLLEMCYDVCEGMAFLESHQFIHRDLAARNCLVDRDLCVKVSDFGMTRYVLDDQYVSSVGTKFPVKWSAPEVFHYFKYSSKSDVWAFGILMWEVFSLGKQPYDLYDNSQVVLKVSQGHRLYRPHLASDTIYQIMYSCWHELPEKRPTFQQLLSSIEPLREKDKH
B3: ROS1 (protein)
chain: HRRLKNQKSAKEGVTVLINEDKELAELRGLAAGVGLANACYAIHTLPTQEEIENLPAFPREKLTLRLLLGSGAFGEVYEGTAVDILGVGSGEIKVAVKTLKKGSTDQEKIEFLKEAHLMSKFNHPNILKQLGVCLLNEPQYIILELMEGGDLLTYLRKARMATFYGPLLTLVDLVDLCVDISKGCVYLERMHFIHRDLAARNCLVSVKDYTSPRIVKIGDFGLARDIYKNDYYRKRGEGLLPVRWMAPESLMDGIFTTQSDVWSFGILIWEILTLGHQPYPAHSNLDVLNYVQTGGRLEPPRNCPDDLWNLMTQCWAQEPDQRPTFHRIQDQLQLFRNFFLNSIYKSRDEANNSGVINESFEGEDGDVICLNSDDIMPVALMETKNREGLNYMVLATECGQGEEKSEGPLGSQESESCGLRKEEKEPHADKDFCQEKQVAYCPSGKPEGLNYACLTHSGYGDGSD
B4: BTK (protein)
chain: MAAVILESIFLKRSQQKKKTSPLNFKKRLFLLTVHKLSYYEYDFERGRRGSKKGSIDVEKITCVETVVPEKNPPPERQIPRRGEESSEMEQISIIERFPYPFQVVYDEGPLYVFSPTEELRKRWIHQLKNVIRYNSDLVQKYHPCFWIDGQYLCCSQTAKNAMGCQILENRNGSLKPGSSHRKTKKPLPPTPEEDQILKKPLPPEPAAAPVSTSELKKVVALYDYMPMNANDLQLRKGDEYFILEESNLPWWRARDKNGQEGYIPSNYVTEAEDSIEMYEWYSKHMTRSQAEQLLKQEGKEGGFIVRDSSKAGKYTVSVFAKSTGDPQGVIRHYVVCSTPQSQYYLAEKHLFSTIPELINYHQHNSAGLISRLKYPVSQQNKNAPSTAGLGYGSWEIDPKDLTFLKELGTGQFGVVKYGKWRGQYDVAIKMIKEGSMSEDEFIEEAKVMMNLSHEKLVQLYGVCTKQRPIFIITEYMANGCLLNYLREMRHRFQTQQLLEMCKDVCEAMEYLESKQFLHRDLAARNCLVNDQGVVKVSDFGLSRYVLDDEYTSSVGSKFPVRWSPPEVLMYSKFSSKSDIWAFGVLMWEIYSLGKMPYERFTNSETAEHIAQGLRLYRPHLASEKVYTIMYSCWHEKADERPTFKILLSNILDVMDEES
B5: FER (protein)
chain: KSGVVLLNPIPKDKKWILSHEDVILGELLGKGNFGEVYKGTLKDKTSVAVKTCKEDLPQELKIKFLQEAKILKQYDHPNIVKLIGVCTQRQPVYIIMELVSGGDFLTFLRRKKDELKLKQLVKFSLDAAAGMLYLESKNCIHRDLAARNCLVGENNVLKISDFGMSRQEDGGVYSSSGLKQIPIKWTAPEALNYGRYSSESDVWSFGILLWETFSLGVCPYPGMTNQQAREQVERGYRMSAPQHCPEDISKIMMKCWDYKPENRPKFSELQKELTIIKRKLT
B6: TYRO3 (protein)
chain: LRKRRKETRFGQAFDSVMARGEPAVHFRAARSFNRERPERIEATLDSLGISDELKEKLEDVLIPEQQFTLGRMLGKGEFGSVREAQLKQEDGSFVKVAVKMLKADIIASSDIEEFLREAACMKEFDHPHVAKLVGVSLRSRAKGRLPIPMVILPFMKHGDLHAFLLASRIGENPFNLPLQTLIRFMVDIACGMEYLSSRNFIHRDLAARNCMLAEDMTVCVADFGLSRKIYSGDYYRQGCASKLPVKWLALESLADNLYTVQSDVWAFGVTMWEIMTRGQTPYAGIENAEIYNYLIGGNRLKQPPECMEDVYDLMYQCWSADPKQRPSFTCLRMELENILGQLSVLSASQDPLYINIERAEEPTAGGSLELPGRDQPYSGAGDGSGMGAVGGTPSDCRYILTPGGLAEQPGQAEHQPESPLNETQRLLLLQQGLLPHSSC
B7: CSK (protein)
chain: MSAIQAAWPSGTECIAKYNFHGTAEQDLPFCKGDVLTIVAVTKDPNWYKAKNKVGREGIIPANYVQKREGVKAGTKLSLMPWFHGKITREQAERLLYPPETGLFLVRESTNYPGDYTLCVSCDGKVEHYRIMYHASKLSIDEEVYFENLMQLVEHYTSDADGLCTRLIKPKVMEGTVAAQDEFYRSGWALNMKELKLLQTIGKGEFGDVMLGDYRGNKVAVKCIKNDATAQAFLAEASVMTQLRHSNLVQLLGVIVEEKGGLYIVTEYMAKGSLVDYLRSRGRSVLGGDCLLKFSLDVCEAMEYLEGNNFVHRDLAARNVLVSEDNVAKVSDFGLTKEASSTQDTGKLPVKWTAPEALREKKFSTKSDVWSFGILLWEIYSFGRVPYPRIPLKDVVPRVEKGYKMDAPDGCPPAVYEVMKNCWHLDAAMRPSFLQLREQLEHIKTHELHL

Target: T1, Bovine, dephosphorylated, Myelin Basic …

Protein	MBP Kinase Activity
B1	Weak
B2	Strong
B3	Strong
B4	Strong
B5	Negative
B6	Strong
B7	Negative
